Measured values taken from paper doi:10.1101/2021.12.06.470909, “Ubiquitination regulates cytoophidium assembly in Schizosaccharomyces pombe” (bioRxiv, 2021).

Molecular target: T1, ubiquitin (S. pombe (endogenous in S. pombe), UniProt P0CG72 1-76)
T1 construct: ubiquitin of S. pombe, the cut product of the ubiquitin precursors; precipitated with an anti-ubiquitin polyclonal antibody; The ubiquitin may be free, in chains or covalently conjugated; source: endogenous, S. pombe lysate
Test: co-IP; S. pombe extract (Buffer A: 50mM Hepes-KOH pH 7.5, 5mM MgAc, 100mM KAc, 0.1% NP40, 1mM DTT, 0.5mg/ml BSA) precipitated with anti-ubiquitin rabbit polyclonal antibody overnight at 4°C, then A/G magnetic beads; blot with anti-HA (Cts1-flag-3HA, with MG132) or anti-GFP (Cts1-YFP strains; also in mug30Δ and ubr11Δ backgrounds); IP signal normalised over input
Conditions: partners not purified

T1 sequence (P0CG72 1-76): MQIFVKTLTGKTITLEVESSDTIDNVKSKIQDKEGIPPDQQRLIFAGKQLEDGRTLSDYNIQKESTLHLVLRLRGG

B1: Cts1-YFP K430R (enzyme, S. pombe, UniProt O42644 1-600, looked up)
chain: MKYVLVSGGVISGIGKGVIASSTGLLLKTLGLKVTSIKIDPYMNIDAGTMSPLEHGEVFVLNDGGEVDLDLGNYERYLNVTLTHDNNITTGKVYSNVIQKERRGDYLGKTVQIVPHVTNEIQDWVERVARIPVDQSGEEPDVCIVELGGTVGDIESAAFVEAMRQFQFRVGHENFVSIHVSLVPVINGEQKTKPTQQAIRDLRSLGITPDLIACRCKQPLEKSVIDKISLFCHVGPEQVLAVHDVSSTYHVPQLLEDKLLEYLKIRFALDKISVSRELALAGENMWSSWKHLTQGYDHLFKKVTIVLVGKYTHLQDSYISVIKALEHSAMRCGRKLDLQWVEASHLEASTNTSDPLSYHKAWHLVCSANGILVPGGFGSRGVEGMIAAAKWARENNTPYLGICLGMQVAVIEFARSVCGIEGAFSEEFDRECENNVVVYMPEIDKDKLGGTMRLGLRPTFFQPNSEWSKLRKLHKMVDEVLERHRHRYEINPAFVSRLEQGGISFIGKDERGERMEIIEKRDHPYFVGVQYHPEYLSKPLKPSPPIFGLVAASAGLLDEFIQSGEEVEWSNFSHFNAESALADMNDSVEVTEEATVVTIS
notes: CTP synthase (Cts1) of Schizosaccharomyces pombe with the point mutation K430R, fused to YFP; source: S. pombe K430R strain in a Cts1-YFP background, in cell lysate
fold reduction of the co-IP signal against Cts1-YFP: 6.2 fold
